Series [1] has as its target AL1 ZFP (Clone 1, 3-finger, Sp1C domain 2 framework) (artificial). The series is described as follows: EMSA; half-maximal binding also 18 nM; 10 mM Tris pH 7.5, 100 mM NaCl, 1 mM MgCl2, 0.1 mM ZnCl2, poly(dA-dT)2, on ice. Conditions: tags: expressed from pET-21a in E. coli BL21(DE3)pLysS, Bio-Rex 70 purified; label: 5'-32P.
Another series concerns the target Zif268 (UniProt P08046 P08046:333-421). The series can be described thus: EMSA; half-maximal binding; positive control; 0.1 mM ZnCl2. For orientation: A gel shift assay detects complexes by their altered migration in electrophoresis.

Chain of AL1 ZFP (Clone 1, 3-finger, Sp1C domain 2 framework) (artificial) (chain, as listed by the source): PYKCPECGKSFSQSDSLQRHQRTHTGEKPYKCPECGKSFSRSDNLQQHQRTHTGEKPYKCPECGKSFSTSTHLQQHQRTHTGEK

B1: AL1 target probe (dsDNA)
DNA 1: TATATATAAGTAAGGTAGTATATATA
DNA 2: TATATATACTACCTTACTTATATATA
In general, Kd refers to the concentration at which binding is half-saturated. Low readings indicate a tighter complex, high ones a looser complex. As for B1, in series [1], the Kd is 18 nM.

B2: Zif268 target probe (dsDNA)
DNA 1: TATATATAGCGTGGGCGTTATATATA
DNA 2: TATATATAACGCCCACGCTATATATA
Regarding B2, the “apparent K (half saturation)” value in the series with Zif268 is 4 nM.

The record behind these values is patent publication US20040091878, “Zinc finger domain recognition code and uses thereof” (published 2004).
